Data set [1] deals with the molecule itself. The experiment in a line: cryo-EM structure; 35 μM Vipp1 mixed with pre-formed rat Dynamin 1 filaments (to keep the ice thick) and vitrified; rings of C11 to C17 symmetry reconstructed.
Data set [2] concerns the molecule itself. The experiment in a line: cross-linking; cysteine cross-linking: 5 μM protein in 25 mM Tris-HCl pH 8.4, 50 mM NaCl with CuP or 5 μM MTS-4, 1 h at room temperature; rescue with 10 mM DTT; SDS-PAGE.
Data set [3] concerns the molecule itself. The data set can be described thus: SEC + other: negative stain EM; filament assembly assay: Sephacryl 16/60 S500 gel filtration in 25 mM Tris-HCl pH 8.4, 50 mM NaCl; void volume, peak 1 and peak 2 analysed by SDS-PAGE and negative stain EM.

Changes are numbered by the printed parent chain. Numbers in names are those of the source. Where “and” joins values, the source holds several entries; their conditions need not be identical. Identical values can stand only once.

B1: Vipp1/IM30 from Nostoc punctiforme, full-length (amino acids 1–258) (natural protein, UniProt B2J6D9 1-258, looked up)
chain: MGLFDRIKRVVSSNLNDLVNKAEDPEKMLEQAILEMQEDLVQLRQGVAQAIAAQKRSEKQYNDAQNEINKWQRNAQLALQKGDENLARQALERKKTYTDTSAALKASLDTQSTQVETLKRNLIQLESKISEAKTKKEMLKARITTAKAQEQLQGMVRGMNTSSAMSAFERMEEKVLMQESRAQALGELAGADLETQFAQLEGGSDVDDELAALKAQMLPPATPVTQAQLPPQQETTPAKSNEVVDAELDSLRKQLDQL
notes: Vipp1/IM30, Nostoc punctiforme, UniProt B2J6D9, amino acids 1-258, 28.7 kDa; His6 sits on the MBP moiety and leaves with it on TEV cleavage; also called native Vipp1; WT; not shown: MBP, N-terminal, cleaved; His6, N-terminal, cleaved
Turning to B1, in data set [1], the “stoichiometry N” value was 84 subunits and 55 subunits to 119 subunits (2×).

B2: Vipp1_(L86C/L193C) (natural protein, Nostoc punctiforme, UniProt B2J6D9 1-258, looked up)
chain: B1 chain with L86C, L193C
notes: Vipp1/IM30, Nostoc punctiforme, UniProt B2J6D9, with the cysteine pair L86C and L193C; Plasmid pOPTM/Vipp1_(L86C/L193C); The legend notes some uncleaved MBP-Vipp1 in the gel; also called L193C and L86C mutants; not shown: MBP, N-terminal, cleaved; His6, N-terminal, cleaved
For B2, the binding result in data set [2] is reported as “binds”.

B3: Vipp1Δα6_(1–219) (domain or fragment, Nostoc punctiforme, UniProt B2J6D9 1-219, looked up)
chain: MGLFDRIKRVVSSNLNDLVNKAEDPEKMLEQAILEMQEDLVQLRQGVAQAIAAQKRSEKQYNDAQNEINKWQRNAQLALQKGDENLARQALERKKTYTDTSAALKASLDTQSTQVETLKRNLIQLESKISEAKTKKEMLKARITTAKAQEQLQGMVRGMNTSSAMSAFERMEEKVLMQESRAQALGELAGADLETQFAQLEGGSDVDDELAALKAQMLP
notes: Vipp1/IM30, Nostoc punctiforme, UniProt B2J6D9, residues 1-219; lacks the C-terminal extension with helix α6 (aa 220-258); Plasmid pOPTM/Vipp1Δα6_(1-219); not shown: MBP, N-terminal, cleaved; His6, N-terminal, cleaved
Take B3: the binding result in data set [3] is “binds”.

For the origin of these results see article PMC8281802, “Bacterial Vipp1 and PspA are members of the ancient ESCRT-III membrane-remodeling superfamily” (Cell, 2021).
